pKd: −log10 of the molar value.

Experiment [1] deals with SS\u0394G4Loop-L6-Aferr (MERS-CoV EMC/2012 spike stem fused to human apoferritin). The experiment is described as follows: BLI, 1:1 fit. A general note: Biolayer interferometry detects binding as a change in optical thickness at a sensor tip.
For experiment [2], the target named is SS-L2-LuS (MERS-CoV EMC/2012 spike stem fused to Aquifex aeolicus lumazine synthase). Put plainly: BLI, 1:1 fit.
The next experiment concerns the target SS-L6-Aferr. Put plainly: BLI, 1:1 fit.
The target of experiment [3] is SS\u0394G4Loop-L6-LuS (MERS-CoV EMC/2012 spike stem fused to Aquifex aeolicus lumazine synthase). The experiment is described as follows: BLI, 1:1 fit.
A further experiment addresses SS-L6-LuS. The experiment is described as follows: BLI, 1:1 fit.
Experiment [4] has as its target MERS SS delG4loop Nanoparticle. The experiment is described as follows: BLI sensorgrams, six curves without concentration labels, time axis 0-500 s.
The target of experiment [5] is SS-L2-LuS (MERS-CoV EMC/2012 spike stem fused to Aquifex aeolicus lumazine synthase).
The target in experiment [6] is MERS SS Nanoparticle (NP).

For CC40.8 (antibody), the pKd in experiment [1] was 8.56; in experiment [2] it was 9.13; with SS-L6-Aferr, 8.71; in experiment [3] it was 8.64; in the experiment with SS-L6-LuS, 8.73. Besides, the on-rate constant (kon) in experiment [1] stood at 184000 M⁻¹ s⁻¹; in experiment [2], 315000 M⁻¹ s⁻¹; in the experiment with SS-L6-Aferr, 268000 M⁻¹ s⁻¹; in experiment [3], 218000 M⁻¹ s⁻¹; in the experiment with SS-L6-LuS, 219000 M⁻¹ s⁻¹.
Turning to G4 (antibody), the negative logarithm of the Kd (pKd) in experiment [4] is 11.52; in experiment [1], 11.55; in experiment [2], 11.75; with SS-L6-Aferr, 11.52; in experiment [3], 11.46; with SS-L6-LuS, 11.34. Further, the negative-log Kd (pKd) in experiment [6] was 11.77. Besides, the on-rate (kon) came to 229000 M⁻¹ s⁻¹ in experiment [1]; 270000 M⁻¹ s⁻¹ in experiment [2]; 155000 M⁻¹ s⁻¹ with SS-L6-Aferr; 147000 M⁻¹ s⁻¹ in experiment [3]; 133000 M⁻¹ s⁻¹ in the experiment with SS-L6-LuS. This substance yielded a maximum binding in experiment [5] of 1.3 nm.

In general, pKd refers to −log10 of the Kd, conventionally taken in molar units. Read a high pKd as a small Kd. Broadly, the kon is the rate constant with which the complex forms.

(Values after patent publication US20260069679A1.)
